From paper PMC6280533, “Construction and characterization of a synthetic Baculovirus-inducible 39K promoter”

Key:
IE-1 (IE1-His) [1] = target: T1, IE-1 (IE1-His) (Bombyx mori nucleopolyhedrovirus (BmNPV), UniProt P33245 1-587); test: EMSA; details: protein: recombinant; tags: His (pCold-I); chain copies: 2; label: 5' biotin; blunt
T1 sequence: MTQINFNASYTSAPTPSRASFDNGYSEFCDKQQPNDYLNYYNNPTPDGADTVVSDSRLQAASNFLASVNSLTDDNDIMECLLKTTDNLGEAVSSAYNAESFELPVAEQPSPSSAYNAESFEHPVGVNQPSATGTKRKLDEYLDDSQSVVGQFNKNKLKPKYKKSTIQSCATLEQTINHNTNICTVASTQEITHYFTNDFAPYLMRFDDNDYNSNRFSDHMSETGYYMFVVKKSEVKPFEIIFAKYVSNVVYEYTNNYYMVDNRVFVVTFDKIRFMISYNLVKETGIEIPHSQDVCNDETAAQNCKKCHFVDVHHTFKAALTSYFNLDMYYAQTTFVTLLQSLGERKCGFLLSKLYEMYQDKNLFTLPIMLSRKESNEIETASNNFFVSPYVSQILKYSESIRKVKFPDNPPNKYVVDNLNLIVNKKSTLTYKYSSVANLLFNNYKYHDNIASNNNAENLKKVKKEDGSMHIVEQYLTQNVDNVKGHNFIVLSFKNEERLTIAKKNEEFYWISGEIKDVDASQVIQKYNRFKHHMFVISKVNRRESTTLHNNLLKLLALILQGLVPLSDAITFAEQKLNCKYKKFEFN

IE-1 (IE1-His) [2] = target: T1, IE-1 (IE1-His); test: EMSA; probe 1, 2, 6 pmol/L; IE-1 0.8 ug/L (so in the source); details: protein: recombinant; tags: His (pCold-I); chain copies: 2; label: 5' biotin; blunt

B1: 39K probe 1 (-486 to -532) (dsDNA)
DNA 1: AGTATTTGATATACGTAGGCGTCGTGCGCGGCAACTTGATTGACGTG
DNA 2: CACGTCAATCAAGTTGCCGCGCACGACGCCTACGTATATCAAATACT
IE-1 (IE1-His) [1]
  binding result: no binding

B2: 39K probe 2 (-386 to -431) (dsDNA)
DNA 1: GACTATCGTATAATATTAAAACCGCGACGCTTCAATTGCGAAATAA
DNA 2: TTATTTCGCAATTGAAGCGTCGCGGTTTTAATATTATACGATAGTC
IE-1 (IE1-His) [1]
  binding result: no binding

B3: 39K probe 4 (+2 to +47) (dsDNA)
DNA 1: AGTAATTACCGACAAATGTTCTAAGCGTAAGGTGTGTCTTCATCAC
DNA 2: GTGATGAAGACACACCTTACGCTTAGAACATTTGTCGGTAATTACT
IE-1 (IE1-His) [1]
  binding result: no binding

B4: 39K probe 3 (-310 to -355) (dsDNA)
DNA 1: AATATTTTAATTATATGAACGACAAACAATTGATCACGTACGATTA
DNA 2: TAATCGTACGTGATCAATTGTTTGTCGTTCATATAATTAAAATATT
IE-1 (IE1-His) [2]
  binding result: binds
